According to the nanobody polyreactivity screen of Harvey et al. (2022):

assay: yeast display, Sf9 membrane polyspecificity reagent, FACS + sequencing; frameworks hold sequencing errors
In short: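 Galactose induction of a Saccharomyces cerevisiae BJ5465 synthetic nanobody display library ran 36–48 hours. The cells were then stained for 1 hour at 4 °C with 10% biotinylated, detergent-solubilized Sf9 membrane reagent, pulled down on streptavidin microbeads and FACS-sorted into low and high (top ~1%) gates on expression and reagent-binding fluorescence. Labels for polyreactivity follow the gate of origin.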

Sequence	polyreactivity (PSR sort gate)
QVQLVESGGGLVQAGGSLRLSCAASGSTFYYNAMGWYRQAPGKERELVAGITSSGGSTYYADSVKGRFTISRDNAKNTVYLQMNSLKPEDTAVYYCAASYKRSRRGYYWGQGTQVTVSS	high polyreactivity
QVQLVESGGGLVQAGGSLRLSCAASGSTFYYNAMGWYRQAPGKERELVARISRSGGSTYADSVKGRVTISRDNAKNTVYLQMNSLKPEDTAVYYCNADAYGTPEFTSYAVRYDYWGQGTQVTVSS	low polyreactivity
QVQLVESGGGLVQAGGSLRLSCAASGSTFYYVNAMGWYRQAPGKEREFVAAISSSSGSTYYADSVKGRFTISRDNAKNTVYLQMNSLKPEDTAVYYCAKVPRYYKSYYWGQGTQVTVSS	high polyreactivity
QVQLVESGGGLVQAGGSLRLSCAASGSTFYYYALGWYRQAPGKERELVASITRGGGSTYYADSVKGRFTISRDNAKNTVYLQMNSLKPEDTAVYYCAARGRFRKYDYWGQGTQVTVSS	high polyreactivity
QVQLVESGGGLVQAGGSLRLSCAASGSTFYYYAMGWSRQAPGKERELVATITSGGSTNYADSVKGRFTISRDNAKNTVYLQMNSLKPEDTAVYYCNADDGYSVWGYDYWGQGTQVTVSS	low polyreactivity
QVQLVESGGGLVQAGGSLRLSCAASGSTFYYYAMGWYRPAPGKERELVATIDSGTSTYYADSVKGRFTISRDNAKNTVYFQMNSLKPEDTAVYYCAAKTWSWSYGYNYWGQGTLVTVSS	low polyreactivity
QVQLVESGGGLVQAGGSLRLSCAASGSTFYYYAMGWYRQAPGKEREFVAAITWSGGSTYYADSVKGRFTISRDNAKNTVYLQMNSLKPEDTAVYYCAKDQRYYYYGGGDYWGQGTQVTVSS	low polyreactivity
QVQLVESGGGLVQAGGSLRLSCAASGSTFYYYAMGWYRQAPGKERELVAAINDSGDRTYYADSVKGRFTISRDNAKNNVYLQMNSLKPEDTAVYYCAADLVSLDPEYDYWGQGTQVTVSS	low polyreactivity
QVQLVESGGGLVQAGGSLRLSCAASGSTFYYYAMGWYRQAPGKERELVAAINSGGRTNYADSVKGRFTISRDNAKNTVYLQMNSLKPEDTAVYSCARDGYHRDYDYWGQGTQVTVSS	low polyreactivity
QVQLVESGGGLVQAGGSLRLSCAASGSTFYYYAMGWYRQAPGKERELVAAITISGGSTYADSVKGRFTISRDNAKNTVYLQMNSLKPEDTALYYCAAYSGVGYLWFDYWGQGTQVTVSS	low polyreactivity
QVQLVESGGGLVQAGGSLRLSCAASGSTFYYYAMGWYRQAPGKERELVAAITNVTSTYYADSVKGRFTISRDNAKNTVYLQMNSLKPEDTAGYYCAAPDPSTEVTYDYWGQGTQVTVSS	low polyreactivity
QVQLVESGGGLVQAGGSLRLSCAASGSTFYYYAMGWYRQAPGKERELVASITTGGGSTYYADSVKGRFTISRDNAKNTVYLQMNSLKPEDTAVYYCAAALAYYYWWYDYWGQGTQVTVSS	low polyreactivity
QVQLVESGGGLVQAGGSLRLSCAASGSTFYYYAMGWYRQAPGKERELVASITTGGGSTYYADSVKGRFTISRDYAKNTVYLQMNSLKPEDTAVYYCAAALAYYYWWYDYWGQGTQVTVSS	low polyreactivity
QVQLVESGGGLVQAGGSLRLSCAASGSTFYYYAMGWYRQAPGTAREWVAAISYSGGRTYYADSVKGRFTISRDHAKNTDDIQMNSLKPEYTAVYYCATGQPILALRYAYGYWGQATQVTVSS	low polyreactivity
QVQLVESGGGLVQAGGSLRLSCAASGSTFYYYARGWYRQAPGKERELVAAIDRDDRTNYADSVKGRFTISRDNAKNTVYLQMNSLKAEDTAVYYCAAVEIYEYDYWGQGTQVTVSS	low polyreactivity
QVQLVESGGGLVQAGGSLRLSCAASGSTFYYYTMGWYRQAPGKERELVAAISGSGSRTYYADSVKGRFTISRDNAKNTVYLQMNSLNPEDTGVYYCAAKRSYPYGSGYWGQGTQVTVSS	high polyreactivity
QVQLVESGGGLVQAGGSLRLSCAASGSTFYYYTMGWYRQAPGKERELVARITRSGGTTYYADSVKGRFTISRDNAKNTVYLQMNSLKPEDTAVYYCAARRYGYTSITWYDYWGQGTLVTVSS	high polyreactivity
QVQLVESGGGLVQAGGSLRLSCAASGSTIDPYGMGWYRQAPGKERELVAAITSSGRTNYADSVKGRFTISRDNAKNTVYLQMNSLKPEDTAVYYCNVQTYVELRLDYWGQGTQVTVSS	low polyreactivity
QVQLVESGGGLVQAGGSLRLSCAASGSTIDYYAMGLYRQAPGKERELVAGISASGGSTYYADSEKGRFTISRDNAKNTVYLQMNSLKPEDTAVYYCASYYKPPGYDYWGQGTQVTVSS	low polyreactivity
QVQLVESGGGLVQAGGSLRLSCAASGSTIERYAMGWYRPAPGKERELVAAIRWSGGSTYYADSVKGRFTISRDNAKNTVYLQMNSLKPEDTAVYYCAASRSNADWFDSLGQGTQVTVSS	high polyreactivity
QVQLVESGGGLVQAGGSLRLSCAASGSTIFENVMGWYRQAPGKEREFVAAINTSGGSTYYADSVKGRFTISRDNAKNTVYLQMNSLKPEDTAVYYCARDSYWEMDYWGQGTQVTVSS	low polyreactivity
QVQLVESGGGLVQAGGSLRLSCAASGSTIGDNAMGWYRQAPGKERELVASISWSGASTYYADSVKGRFTISRDNAKNTVYLQMNSLKPEDTAVYYCAVYYSYYSHLYHLLFSYWGQGTQVTVSS	low polyreactivity
QVQLVESGGGLVQAGGSLRLSCAASGSTIGPYAMGWYRQAPGKERELVAAITESGDSTYYADSVKGRFTISRDTAKNTVYLQMNSLKPEDTAVYYCAADVYGDKMDYWGQGTQVTVSS	low polyreactivity
QVQLVESGGGLVQAGGSLRLSCAASGSTIGYYAMGWYRQAPGTERELVAAITRSGGSTSYADSVKGRFTISRDNAKNTVYLQMNSLKPEDTAVYYCAARFYRPYYARQGYNYWGQGTQVTVSS	high polyreactivity
QVQLVESGGGLVQAGGSLRLSCAASGSTIIRNAMGWSRQAPGKERELVAAISTSGGRTHYADSVKGRFTISRDNAKNTVYLQMNSLKPEDTAVYYCATRGKGHYYYWGQGTQVTVSS	high polyreactivity
QVQLVESGGGLVQAGGSLRLSCAASGSTIKGYDMGWYRQAPGKERELVAAIDSGGSTYYADSVKGRFTISRDNAKNTVYLQMNSLKPEDTAVFYCAAERVSLYWVIFGYWGQGTQVTVSS	low polyreactivity
QVQLVESGGGLVQAGGSLRLSCAASGSTILSYGMGWYRQAPGKERELVAGISRGGITYYADSVKGRFTISRDNAKNNVYLQMNSLKPEDTAVYYCNVGLYSYYYRSRPRDYEYWGQGTQVTVSS	high polyreactivity
QVQLVESGGGLVQAGGSLRLSCAASGSTINSYAMGWYRQAPGKERELVAAITWIGGNTYYADSVKGRFTISRDNAKNTVYLQMNSLKPEDTAVYYCAADEYFEYYYWGQGTQVTVSS	low polyreactivity
QVQLVESGGGLVQAGGSLRLSCAASGSTIPPYVMGWYRQAPGKERELVAAISSSTSSTYYADSVKGRFTISRDNAKNTVYLQMNSLKPEDTAVYYCADEYYTYEYIYDYWGQGTQVTVSS	high polyreactivity
QVQLVESGGGLVQAGGSLRLSCAASGSTIPWYAMGWYRQAPGKEREFVAAISWSSGRTYYADSVKGRFTISRDNAKNTVYLQMNSLKPEDTAVYYCAARQWAYYRDVEMGYWGQGTQVTVSS	high polyreactivity
